In IntAct's records for PubMed 24366543:

B1: Nuclear factor erythroid 2-related factor 2 (Mus musculus), Q60795 (parent)
chain: MMDLELPPPGLQSQQDMDLIDILWRQDIDLGVSREVFDFSQRQKDYELEKQKKLEKERQEQLQKEQEKAFFAQFQLDEETGEFLPIQPAQHIQTDTSGSASYSQVAHIPKQDALYFEDCMQLLAETFPFVDDHESLALDIPSHAESSVFTAPHQAQSLNSSLEAAMTDLSSIEQDMEQVWQELFSIPELQCLNTENKQLADTTAVPSPEATLTEMDSNYHFYSSISSLEKEVGNCGPHFLHGFEDSFSSILSTDDASQLTSLDSNPTLNTDFGDEFYSAFIAEPSDGGSMPSSAAISQSLSELLDGTIEGCDLSLCKAFNPKHAEGTMEFNDSDSGISLNTSPSRASPEHSVESSIYGDPPPGFSDSEMEELDSAPGSVKQNGPKAQPAHSPGDTVQPLSPAQGHSAPMRESQCENTTKKEVPVSPGHQKAPFTKDKHSSRLEAHLTRDELRAKALHIPFPVEKIINLPVDDFNEMMSKEQFNEAQLALIRDIRRRGKNKVAAQNCRKRKLENIVELEQDLGHLKDEREKLLREKGENDRNLHLLKRRLSTLYLEVFSMLRDEDGKPYSPSEYSLQQTRDGNVFLVPKSKKPDTKKN

Variants of: B1
Settings: with keap1_mouse Keap1, Q9Z2X8
Sequence of keap1_mouse Keap1, Q9Z2X8 (Q9Z2X8 whole entry): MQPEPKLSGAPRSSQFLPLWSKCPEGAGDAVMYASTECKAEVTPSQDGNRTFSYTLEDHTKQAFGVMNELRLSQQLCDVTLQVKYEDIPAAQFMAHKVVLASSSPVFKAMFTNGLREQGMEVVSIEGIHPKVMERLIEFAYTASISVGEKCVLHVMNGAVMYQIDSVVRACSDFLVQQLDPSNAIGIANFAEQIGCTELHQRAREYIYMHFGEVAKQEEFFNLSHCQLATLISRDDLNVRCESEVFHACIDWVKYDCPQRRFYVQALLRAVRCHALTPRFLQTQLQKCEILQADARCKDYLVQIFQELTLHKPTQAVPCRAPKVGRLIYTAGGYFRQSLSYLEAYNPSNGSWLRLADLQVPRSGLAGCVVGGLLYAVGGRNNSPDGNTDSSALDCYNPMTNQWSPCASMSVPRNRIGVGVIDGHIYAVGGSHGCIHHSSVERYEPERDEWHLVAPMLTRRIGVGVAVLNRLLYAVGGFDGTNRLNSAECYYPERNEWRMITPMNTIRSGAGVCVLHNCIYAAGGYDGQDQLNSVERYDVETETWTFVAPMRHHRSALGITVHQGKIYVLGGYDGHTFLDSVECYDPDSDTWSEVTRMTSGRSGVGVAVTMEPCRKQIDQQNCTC

| Variant | effect of a mutation on the interaction |
| --- | --- |
| D29H | disrupting interaction |

Variants of: B1
Settings: with keap1_mouse Keap1, Q9Z2X8
Remark: another data set of the same source

| Variant | effect of a mutation on the interaction |
| --- | --- |
| D29G | disrupting interaction |

Variants of: B1
Settings: with keap1_mouse Keap1, Q9Z2X8
Remark: another data set of the same source

| Variant | effect of a mutation on the interaction |
| --- | --- |
| I28T | disrupting interaction |

Variants of: B1
Settings: with keap1_mouse Keap1, Q9Z2X8
Remark: another data set of the same source

| Variant | effect of a mutation on the interaction |
| --- | --- |
| Q43R | increasing interaction |

Variants of: B1
Settings: with keap1_mouse Keap1, Q9Z2X8
Remark: another data set of the same source

| Variant | effect of a mutation on the interaction |
| --- | --- |
| Q26E | disrupting interaction |

Variants of: B1
Settings: with keap1_mouse Keap1, Q9Z2X8
Remark: another data set of the same source

| Variant | effect of a mutation on the interaction |
| --- | --- |
| D27Y | disrupting interaction |

Variants of: B1
Settings: with keap1_mouse Keap1, Q9Z2X8
Remark: another data set of the same source

| Variant | effect of a mutation on the interaction |
| --- | --- |
| L23R | disrupting interaction |

Variants of: B1
Settings: with keap1_mouse Keap1, Q9Z2X8
Remark: another data set of the same source

| Variant | effect of a mutation on the interaction |
| --- | --- |
| W24R | disrupting interaction |

Variants of: B1
Settings: with keap1_mouse Keap1, Q9Z2X8
Remark: another data set of the same source

| Variant | effect of a mutation on the interaction |
| --- | --- |
| W24C | disrupting interaction |

Variants of: B1
Settings: with keap1_mouse Keap1, Q9Z2X8
Remark: another data set of the same source

| Variant | effect of a mutation on the interaction |
| --- | --- |
| S33R | increasing interaction |

Variants of: B1
Settings: with keap1_mouse Keap1, Q9Z2X8
Remark: another data set of the same source

| Variant | effect of a mutation on the interaction |
| --- | --- |
| R34Q | disrupting interaction |

Variants of: B1
Settings: with keap1_mouse Keap1, Q9Z2X8
Remark: another data set of the same source

| Variant | effect of a mutation on the interaction |
| --- | --- |
| V32G | disrupting interaction |

Variants of: B1
Settings: with keap1_mouse Keap1, Q9Z2X8
Remark: another data set of the same source

| Variant | effect of a mutation on the interaction |
| --- | --- |
| G31A | disrupting interaction |

Variants of: B1
Settings: with keap1_mouse Keap1, Q9Z2X8
Remark: another data set of the same source

| Variant | effect of a mutation on the interaction |
| --- | --- |
| L30F | disrupting interaction |
